# Laboratory results from patent US20220275417A1 (BARCODEBODY, published 2022).
# Key:
# [1] = target: T1, recombinant human sCD4 CF (manufactured by R&D Systems) (human, UniProt P01730 26-390, limits assumed); assay: SPR, Biacore T-200, CD4 immobilized on chip, as in Example 2
# T1 construct: Immobilized on the Biacore sensor chip; also called recombinant CD4; CD4 antigen
# [2] = target: T1, recombinant human sCD4 CF (manufactured …); assay: SPR, Biacore T-200, antigen immobilized on chip, nanobody as analyte
# [3] = target: T2, CD4 on the surface of HEK293 cells transfected with pCAGGS-CD4-myc (UniProt P01730 26-458, limits assumed); assay: immunofluorescence staining of fixed CD4-expressing HEK293 cells, anti-FLAG-AF488 secondary
# T2 construct: whole, on cells; Cells were fixed with 4% paraformaldehyde before staining; also called CD4 surface expressing cells
# [4] = target: T1, recombinant human sCD4 CF (manufactured …); assay: simultaneous binding assay on CD4-immobilized magnetic beads, barcode cleaved by enterokinase and quantified by LC-MS/MS
Binder,Kd [1],koff [1],kon [1],Kd [2],koff [2],kon [2],binding result [3],binding result [4]
"anti-CD4-FLAG (VHH, Secreted from Pichia pastoris with the alpha-factor signal, which is cleaved during secretion; also called Anri-CD4-FLAG; anti-CD4 nanobody with no barcode) VHH: EVQLVESGGGSVQPGGSLTLSCGTSGRTFNVMGWFRQAPGKEREFVAAVRWSSTGIYYTQYADSVKSRFTISRDNAKNTVYLEMNSLKPEDTAVYYCAADTYNSNPARWDGYDFRGQGTQVTVSS",26 nM,0.0037 s⁻¹,140000 M⁻¹ s⁻¹,42 nM,0.0054 s⁻¹,68000 M⁻¹ s⁻¹,–,–
"anti-CD4 with barcode 4-1 (VHH, secreted from Pichia pastoris) VHH: EVQLVESGGGSVQPGGSLTLSCGTSGRTFNVMGWFRQAPGKEREFVAAVRWSSTGIYYTQYADSVKSRFTISRDNAKNTVYLEMNSLKPEDTAVYYCAADTYNSNPARWDGYDFRGQGTQVTVSS",21 nM,0.003 s⁻¹,140000 M⁻¹ s⁻¹,–,–,–,–,–
"anti-CD4 with barcode 4-2 (VHH, secreted from Pichia pastoris) VHH: EVQLVESGGGSVQPGGSLTLSCGTSGRTFNVMGWFRQAPGKEREFVAAVRWSSTGIYYTQYADSVKSRFTISRDNAKNTVYLEMNSLKPEDTAVYYCAADTYNSNPARWDGYDFRGQGTQVTVSS",28 nM,0.0028 s⁻¹,100000 M⁻¹ s⁻¹,–,–,–,–,–
"anti-CD4 with barcode 4-5 (VHH, secreted from Pichia pastoris) VHH: EVQLVESGGGSVQPGGSLTLSCGTSGRTFNVMGWFRQAPGKEREFVAAVRWSSTGIYYTQYADSVKSRFTISRDNAKNTVYLEMNSLKPEDTAVYYCAADTYNSNPARWDGYDFRGQGTQVTVSS",24 nM,0.0028 s⁻¹,180000 M⁻¹ s⁻¹,–,–,–,–,–
"anti-CD4 with barcode 4-7 (VHH, secreted from Pichia pastoris) VHH: EVQLVESGGGSVQPGGSLTLSCGTSGRTFNVMGWFRQAPGKEREFVAAVRWSSTGIYYTQYADSVKSRFTISRDNAKNTVYLEMNSLKPEDTAVYYCAADTYNSNPARWDGYDFRGQGTQVTVSS",24 nM,0.0028 s⁻¹,110000 M⁻¹ s⁻¹,–,–,–,–,–
"anti-CD4 with barcode 4-3 (VHH, secreted from Pichia pastoris) VHH: EVQLVESGGGSVQPGGSLTLSCGTSGRTFNVMGWFRQAPGKEREFVAAVRWSSTGIYYTQYADSVKSRFTISRDNAKNTVYLEMNSLKPEDTAVYYCAADTYNSNPARWDGYDFRGQGTQVTVSS",26 nM,0.0036 s⁻¹,140000 M⁻¹ s⁻¹,–,–,–,–,–
"anti-CD4 with barcode 4-4 (VHH, secreted from Pichia pastoris) VHH: EVQLVESGGGSVQPGGSLTLSCGTSGRTFNVMGWFRQAPGKEREFVAAVRWSSTGIYYTQYADSVKSRFTISRDNAKNTVYLEMNSLKPEDTAVYYCAADTYNSNPARWDGYDFRGQGTQVTVSS",25 nM,0.0029 s⁻¹,120000 M⁻¹ s⁻¹,–,–,–,–,–
"anti-CD4 with barcode 4-6 (VHH, secreted from Pichia pastoris) VHH: EVQLVESGGGSVQPGGSLTLSCGTSGRTFNVMGWFRQAPGKEREFVAAVRWSSTGIYYTQYADSVKSRFTISRDNAKNTVYLEMNSLKPEDTAVYYCAADTYNSNPARWDGYDFRGQGTQVTVSS",28 nM,0.0033 s⁻¹,120000 M⁻¹ s⁻¹,–,–,–,–,–
"anti-CD4 with barcode 4-8 (VHH, secreted from Pichia pastoris) VHH: EVQLVESGGGSVQPGGSLTLSCGTSGRTFNVMGWFRQAPGKEREFVAAVRWSSTGIYYTQYADSVKSRFTISRDNAKNTVYLEMNSLKPEDTAVYYCAADTYNSNPARWDGYDFRGQGTQVTVSS",19 nM,0.0029 s⁻¹,160000 M⁻¹ s⁻¹,–,–,–,–,–
"anti-CD4-FLAG-barcode 1 (VHH, Secreted from Pichia pastoris with the alpha-factor signal, which is cleaved during secretion; also called anti-CD4 nanobody) VHH: EVQLVESGGGSVQPGGSLTLSCGTSGRTFNVMGWFRQAPGKEREFVAAVRWSSTGIYYTQYADSVKSRFTISRDNAKNTVYLEMNSLKPEDTAVYYCAADTYNSNPARWDGYDFRGQGTQVTVSS",–,–,–,52 nM,0.004 s⁻¹,77000 M⁻¹ s⁻¹,–,–
"anti-GFP-FLAG-barcode 2 (VHH, also called anti-GFP nanobody) VHH: QVQLVESGGALVQPGGSLRLSCAASGFPVNRYSMRWYRQAPGKEREWVAGMSSAGDRSSYEDSVKGRFTISRDDARNTVYLQMNSLKPEDTAVYYCNVNVGFEYWGQGTQVTVSS",–,–,–,–,–,–,no binding (tested: 3.3 µg/ml),no binding (tested: 0.1 µM)
